# Positions of bridges follow the written chain, without caps; N, C: chain ends. Non-standard residues stand in square brackets, D forms with d. Residues, ends and D or L forms follow the SMILES beside them. Triazole bridges read from a SMILES are 1,4-linked. No end group written: not given here. ξ: configuration not given here. dPhe(4-guanidino) = N=C(N)Nc1ccc(C[C@@H](N)C(=O)O)cc1; Phe(4-guanidino) = N=C(N)Nc1ccc(C[C@H](N)C(=O)O)cc1; ξLys(N3) = [N-]=[N+]=NCCCCC(N)C(=O)O; Aha = [N-]=[N+]=NCC[C@H](N)C(=O)O; Pra = C#CC[C@H](N)C(=O)O
# Tests used:
# KRAS (G12D) [1] = biological target: T1, KRAS (G12D) (Homo sapiens, UniProt P01116, G12D); experiment: EC50 for KRAS (G12D); assay type: binding
# KRAS (WT) = KRAS (WT) (Homo sapiens, UniProt P01116); experiment: EC50 for KRAS (WT); assay type: binding
# KRAS (G12D) [2] = biological target: T1, KRAS (G12D); experiment: ELISA binding of cyclic peptides to KRAS (G12D); details: absorbance units; for ELISA binding compared with LRGGnf: FIG. 3 and FIG. 4, 5 μM and 20 μM peptide, KRAS (WT) and KRAS (G12D)
# Description: FIG. 2 is a graph of a single point ELISA assay comparing the binding (measured in absorbance units, A.U.) of cyclic peptide 7b10 (LRGDGnf; SEQ ID NO:5) and LRGGnf (SEQ ID NO:4) to KRAS (WT) and KRAS (G12D).
# (§1) FIG. 3 is a graph of ELISA assays of four peptides (LRGGnf (SEQ ID NO:4), LRG (F—Br) (SEQ ID NO:6), LRGGnf-Az3 (SEQ ID NO:4), and LRGGnf-Az2 (SEQ ID NO:4)) at two different concentrations (5 μM and 20 μM) to KRAS (WT) and KRAS (G12D) comparing the binding (measured in absorbance units, A.U.). […] All of the cyclic peptides show preferential binding to KRAS (G12D) over KRAS (WT).
# as §1, with “4” for “3”, “(QDNY” for “(LRGGnf”, “NO:14), QNGnfY” for “NO:4), LRG (F—Br)”, “NO:24), QQGnfGnf” for “NO:6), LRGGnf-Az3”, “NO:3),” for “NO:4),”, “LRGGnf” for “LRGGnf-Az2”
ELISA binding compared with LRGGnf (KRAS (G12D) [2]),Compound,further results
slightly better,CC(C)C[C@@H]1NC(=O)[C@@H](N)Cc2cn(nn2)CC[C@@H](C(N)=O)NC(=O)[C@H](Cc2ccc(NC(=N)N)cc2)NC(=O)CNC(=O)[C@H](CCCNC(=N)N)NC1=O [LRGGnf-Az2] (H-[Pra]LRG[Phe(4-guanidino)][Aha]-NH2; triazole 1-6; N-terminus and C-terminus assumed),–
more so,"QDNY: cyclic peptide with variable region QDNY (SEQ ID NO:14) (also: cyclic peptide, variable region only, ring closure not given here)",–

# Continued, compound first:
Compound,ELISA binding compared with LRGGnf (KRAS (G12D) [2]),further results
N=C(N)Nc1ccc(C[C@H]2NC(=O)[C@@H](Cc3ccc(NC(=N)N)cc3)NC(=O)[C@@H](CCC(N)=O)NC(=O)[C@@H](CCC(N)=O)NC(=O)[C@@H](N)Cc3cn(nn3)CCCCC(C(N)=O)NC2=O)cc1 (stereo partly shown) [QQGnfGnf] (H-[Pra][dQ][dQ][dPhe(4-guanidino)][dPhe(4-guanidino)][ξLys(N3)]-NH2; triazole 1-6),–,EC50 (KRAS (G12D) [1]): 1 µM; EC50 (KRAS (WT)): 3 µM
"LRG (F—Br): cyclic peptide with variable region LRGF-Br (SEQ ID NO:6), F—Br is bromophenylalanine (LRG[bromophenylalanine]; also: cyclic peptide, only variable region given)",noticeable worse,–
"LRGGnf: cyclic peptide with variable region LRGGnf (SEQ ID NO:4) (LRG[Phe(4-guanidino)]; also: cyclic peptide, only variable region given)",–,"binding compared to LRGDGnf, single point ELISA (KRAS (G12D) [2]; FIG. 2, single point ELISA to KRAS (WT) and KRAS (G12D)): 5 times"
"LRGGnf-Az3: cyclic peptide LRGGnf (SEQ ID NO:4) with azidoornithine (OrnN3 or Az3) (LRG[Phe(4-guanidino)]; also: cyclic peptide, only variable region given, azidoornithine (Az3) modification, position not given here)",comparable to LRGGnf,–

# — patent US11414460B2, “KRAS-specific capture agents, compositions, and methods of making and using” (Institute for Systems Biology, priority 2019, dated 2022)
